Reference: patent publication US20190241662A1
Like-named read-outs stand apart in the source and are kept apart here.

Assays:
[1] = biological target: full-length human CTLA4 expressed on cells (human) (UniProt P16410); assay: flow cytometry, transfected HEK293F cells, 100 nM antibody
[2] = biological target: human LAG3 on HEK293F cells (human) (UniProt P18627); assay: as above
[3] = biological target: human PD1 on HEK293F cells (human) (UniProt Q15116); assay: as above
[4] = biological target: full-length human CTLA4 expressed on cells (human) (UniProt P16410); assay: as above; remark: listed apart in the source
[5] = biological target: human LAG3 on HEK293F cells (human) (UniProt P18627); assay: as above; remark: listed apart in the source
[6] = biological target: human PD-L1 on HEK293F cells (human) (UniProt Q9NZQ7); assay: as above
[7] = biological target: human Tim3 on HEK293F cells (human) (UniProt Q8TDQ0); assay: as above
[8] = biological target: human B7H3 on HEK293F cells (human) (UniProt Q5ZPR3); assay: flow cytometry, transfected HEK293F cells, 100 nM antibody [Cont.]
[9] = biological target: human Tim3 on HEK293F cells (human) (UniProt Q8TDQ0); assay: as above
[10] = biological target: full-length mouse CTLA4 expressed on HEK293F cells (mouse) (UniProt P09793); assay: flow cytometry, transfected HEK293F cells, antibody concentration not printed [Cont.]
[11] = biological target: full-length human CTLA4 expressed on cells (human) (UniProt P16410); assay: flow cytometry, activated human CD4+ T cells, APC-labelled antibody; lower right quadrant 0%
[12] = biological target: CTLA4 on activated monkey T cells; assay: flow cytometry, activated monkey CD4+ T cells, APC-labelled antibody; lower right quadrant […]
[13] = biological target: CTLA4 on activated mouse T cells (mouse) (UniProt P09793); assay: flow cytometry, activated mouse CD4+ T cells, APC-labelled antibody; lower right quadrant 0.043%
CTLA4 on activated mouse T cells (mouse), sequence (P09793 36-223 limits assumed): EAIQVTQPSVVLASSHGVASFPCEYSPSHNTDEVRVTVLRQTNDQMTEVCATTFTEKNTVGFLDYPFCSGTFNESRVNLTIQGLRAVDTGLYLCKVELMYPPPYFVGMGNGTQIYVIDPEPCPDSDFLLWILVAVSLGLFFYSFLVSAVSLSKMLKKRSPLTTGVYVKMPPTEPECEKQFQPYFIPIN

full-length human CTLA4 expressed on cells (human), sequence (P16410 36-223): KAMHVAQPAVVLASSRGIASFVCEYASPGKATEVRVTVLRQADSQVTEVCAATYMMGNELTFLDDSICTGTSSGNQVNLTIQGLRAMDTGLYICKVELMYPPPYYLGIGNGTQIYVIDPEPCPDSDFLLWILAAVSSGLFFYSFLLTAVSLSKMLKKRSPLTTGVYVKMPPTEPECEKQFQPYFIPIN
human Tim3 on HEK293F cells (human), sequence (Q8TDQ0 22-301): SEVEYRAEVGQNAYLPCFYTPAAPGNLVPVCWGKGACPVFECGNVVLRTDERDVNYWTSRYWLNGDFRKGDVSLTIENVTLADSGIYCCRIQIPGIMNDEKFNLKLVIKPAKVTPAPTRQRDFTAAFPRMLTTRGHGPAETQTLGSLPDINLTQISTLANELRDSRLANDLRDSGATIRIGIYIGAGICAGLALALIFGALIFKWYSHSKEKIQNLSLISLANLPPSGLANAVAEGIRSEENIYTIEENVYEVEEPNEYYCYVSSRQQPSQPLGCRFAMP
human LAG3 on HEK293F cells (human), sequence (P18627 23-525): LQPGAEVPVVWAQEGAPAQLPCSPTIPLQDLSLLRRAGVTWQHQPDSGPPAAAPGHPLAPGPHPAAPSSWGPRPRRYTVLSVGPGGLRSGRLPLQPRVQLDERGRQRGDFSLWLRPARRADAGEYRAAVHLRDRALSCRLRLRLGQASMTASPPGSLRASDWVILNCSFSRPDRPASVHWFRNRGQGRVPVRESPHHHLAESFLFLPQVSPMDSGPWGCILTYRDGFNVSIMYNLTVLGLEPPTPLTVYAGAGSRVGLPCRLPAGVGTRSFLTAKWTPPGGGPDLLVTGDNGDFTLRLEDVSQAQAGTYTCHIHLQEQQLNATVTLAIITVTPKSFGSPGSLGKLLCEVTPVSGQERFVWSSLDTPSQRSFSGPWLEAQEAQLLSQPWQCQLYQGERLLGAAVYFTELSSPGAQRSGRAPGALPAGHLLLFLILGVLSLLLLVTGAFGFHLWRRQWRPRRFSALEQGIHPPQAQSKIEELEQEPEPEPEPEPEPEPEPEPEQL
full-length mouse CTLA4 expressed on HEK293F cells (mouse), sequence (P09793 36-223): as the sequence (P09793 36-223 limits assumed) above
human PD-L1 on HEK293F cells (human), sequence (Q9NZQ7 19-290): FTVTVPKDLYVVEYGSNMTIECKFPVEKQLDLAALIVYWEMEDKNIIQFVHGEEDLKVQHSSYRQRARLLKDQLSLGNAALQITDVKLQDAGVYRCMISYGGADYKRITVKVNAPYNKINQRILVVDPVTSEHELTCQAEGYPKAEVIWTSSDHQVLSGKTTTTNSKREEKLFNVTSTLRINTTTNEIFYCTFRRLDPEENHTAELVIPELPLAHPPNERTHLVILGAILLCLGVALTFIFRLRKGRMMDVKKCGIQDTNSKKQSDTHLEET
human PD1 on HEK293F cells (human), sequence (Q15116 25-288): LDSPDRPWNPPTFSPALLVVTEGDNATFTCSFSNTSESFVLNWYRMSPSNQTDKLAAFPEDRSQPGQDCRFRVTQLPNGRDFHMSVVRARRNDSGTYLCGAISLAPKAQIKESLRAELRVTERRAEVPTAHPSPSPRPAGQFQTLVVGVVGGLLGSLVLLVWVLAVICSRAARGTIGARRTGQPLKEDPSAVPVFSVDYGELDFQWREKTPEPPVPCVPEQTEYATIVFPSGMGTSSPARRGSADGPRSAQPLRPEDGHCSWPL
CTLA4 on activated monkey T cells, sequence (chain, as listed by the source limits assumed): as the sequence (P16410 36-223) above, with S14N, I18T, L106M counted along it
human B7H3 on HEK293F cells (human), sequence (Q5ZPR3 29-534): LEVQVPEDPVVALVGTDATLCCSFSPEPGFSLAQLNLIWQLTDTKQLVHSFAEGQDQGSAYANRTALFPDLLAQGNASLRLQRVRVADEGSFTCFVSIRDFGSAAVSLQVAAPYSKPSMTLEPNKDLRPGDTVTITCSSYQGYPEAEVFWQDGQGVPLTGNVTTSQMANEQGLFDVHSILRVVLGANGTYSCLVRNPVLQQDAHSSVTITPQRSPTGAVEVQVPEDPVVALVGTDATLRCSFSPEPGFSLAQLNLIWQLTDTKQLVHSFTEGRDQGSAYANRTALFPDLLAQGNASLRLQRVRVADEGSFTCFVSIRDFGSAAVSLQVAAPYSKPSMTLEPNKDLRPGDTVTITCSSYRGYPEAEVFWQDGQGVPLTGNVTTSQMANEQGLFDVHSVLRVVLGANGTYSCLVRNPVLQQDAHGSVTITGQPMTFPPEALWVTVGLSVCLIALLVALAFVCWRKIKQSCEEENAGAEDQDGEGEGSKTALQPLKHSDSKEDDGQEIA

**Q.** What does the source list for isotype control antibody (human IgG1)?
**A.** % of cells in upper right quadrant (Q2) [1]: 1.79%; % of cells in upper right quadrant (Q2) [2]: 2.1%; % of cells in upper right quadrant (Q2) [3]: 0.99%; % of cells in upper right quadrant (Q2) [4]: 0.45%; Mean [4]: 48000; % of cells in upper right quadrant (Q2) [5]: 0.17%; Mean [5]: 3550; % of cells in upper right quadrant (Q2) [6]: 0.27%; Mean [6]: 36300; % of cells in upper right quadrant (Q2) [7]: 0.055%; Mean [7]: 3200; % of cells in upper right quadrant (Q2) [8]: 1.72%; % of cells in upper right quadrant (Q2) [9]: 1.06%; % of cells in upper right quadrant (Q2) [10]: 0.23; Mean [10]: 3700; % of cells in upper right quadrant (APC-positive) [11]: 0.034%; % of cells in upper right quadrant (APC-positive) [12]: 6.27%; % of cells in upper right quadrant (APC-positive) [13]: 1.98%
